Substrate in this data set: O=[N+]([O-])c1ccc(OP(=O)(O)O)cc1
Nature of the data set: purified protein, by the assay type. The following applies: other: substrate pNPP.

Where [1] appears, read: Sts-1PGM, pH 5.0, 37 °C, pH 5.0.
[2] abbreviates: Sts-1PGM, pH 7.5, 37 °C, pH 7.5.
The mark [3] stands for this setting: Sts-2PGM(E481V), pH 5.0, 37 °C, pH 5.0.
The mark [4] stands for this setting: Sts-2PGM(E481V), pH 7.5, 37 °C, pH 7.5.
[5] abbreviates: Sts-2PGM(S552A/S582Y), pH 5.0, 37 °C, pH 5.0.
Where [6] appears, read: Sts-2PGM(S552A/S582Y), pH 7.5, 37 °C, pH 7.5.
[7] abbreviates: Sts-2PGM(A446S/S552A), pH 7.5, 37 °C, pH 7.5.
The mark [8] stands for this setting: Sts-2PGM(Q372V/S582Y), pH 7.5, 37 °C, pH 7.5.
Where [9] appears, read: Sts-2PGM wild-type, pH 5.0, 37 °C, pH 5.0.
[10] abbreviates: Sts-2PGM wild-type, pH 7.5, 37 °C, pH 7.5.

Where a chain is given by its changes, count along the chain named. In names and notes the source's numbering stands.

This is an account of results in publication PMC2880635.

B1: Sts-1PGM (Mus musculus) (protein)
chain: GPQKRCLFVCRHGERMDVVFGKYWLSQCFDAKGRYIRTNLNMPHSLPQRSGGFRDYEKDAPITVFGCMQARLVGEALLESNTVIDHVYCSPSLRCVQTAHNILKGLQQDNHLKIRVEPGLFEWTKWVAGSTLPAWIPPSELAAANLSVDTTYRPHIPVSKLAISESYDTYINRSFQVTKEIISECKSKGNNILIVAHASSLEACTCQLQGLSPQNSKDFVQMVRKIPYLGFCSCEELGETGIWQLTDPPILPLTHGPTGGFNWRETLLQE
As for B1, under setting [1], the Km (in general, the concentration of substrate that gives half-maximal velocity) is 20 ± 9 µM; the kcat (as a rule, the maximal rate divided by the concentration of active sites) stood at 63.4 s⁻¹; the kcat/Km (commonly the second-order rate constant that governs catalysis at low substrate concentration) is 3.15e+06 M⁻¹ s⁻¹. Under setting [2], the Km was determined as 500 ± 60 µM, the kcat is 70 s⁻¹ and the kcat/Km worked out at 141000 M⁻¹ s⁻¹.

B2: Sts-2PGM(E481V) (Mus musculus; E481V) (protein)
chain: ATISRRGILVVRHGERVDQVFGKSWLQQCTTADGKYYRPDLNFPRSLPRRSNGIKDFENDPPLSSCGIFQARLAGEALLDSGVRVTAVFASPALRCVQTAKHILEELKLEKKLKIRVEPGIFEWMKWVASKATLTFLTLEELKEANFNVDLDYRPALPRCSLMPAESYDQYVERCAVSMGQIINTCPQDMGITLIVSHSSALDSCTRPLLGLPPRECGDFAQLVRKIPSLGMCFCEENREDGKWDLVNPPVKTLTHGANSVFNWRNWISSN
Turning to B2, under setting [3], the Km was 200 ± 20 µM, the kcat was 0.65 s⁻¹ and the kcat/Km is 3100 M⁻¹ s⁻¹. Further, under setting [4], the Km worked out at 1000 ± 150 µM, the kcat was 0.15 s⁻¹ and the kcat/Km turned out to be 150 M⁻¹ s⁻¹.

B3: Sts-2PGM(S552A/S582Y) (Mus musculus; S552A/S582Y) (protein)
chain: B2 chain with V128E, S199A, S229Y
As to B3, under setting [5], the Km amounted to 620 ± 100 µM, the kcat is 2.9 s⁻¹ and the kcat/Km was 4700 M⁻¹ s⁻¹. Further, under setting [6], the Km is 1900 ± 200 µM, the kcat came out at 0.43 s⁻¹ and the kcat/Km is 226 M⁻¹ s⁻¹.

B4: Sts-2PGM(A446S/S552A) (Mus musculus; A446S/S552A) (protein)
chain: B2 chain with A93S, V128E, S199A
On to B4, for which, under setting [7], the Km was 640 ± 80 µM, the kcat amounted to 0.27 s⁻¹ and the kcat/Km stood at 420 M⁻¹ s⁻¹.

B5: Sts-2PGM(Q372V/S582Y) (Mus musculus; Q372V/S582Y) (protein)
chain: B2 chain with Q19V, V128E, S229Y
In the case of B5, under setting [8], the Km stood at 700 ± 100 µM, the kcat worked out at 0.4 s⁻¹ and the kcat/Km stood at 571 M⁻¹ s⁻¹.

B6: Sts-2PGM (Mus musculus) (protein)
chain: B2 chain with V128E
Take B6: under setting [9], the Km was 1500 ± 80 µM, the kcat is 0.3 s⁻¹ and the kcat/Km was 200 M⁻¹ s⁻¹. Under setting [10], the Michaelis constant (Km) was 2000 ± 130 µM, the kcat came to 0.03 s⁻¹ and the kcat/Km was 15 M⁻¹ s⁻¹.
